For this series, the target named is 6HisRsmA (RsmAxcc) (Xanthomonas citri subsp. citri strain 306) (UniProt Q8PLP9). The series is described as follows: EMSA. The following applies: 10 mM HEPES pH 7.3, 20 mM KCl, 1 mM MgCl2, 1 mM DTT, 5% glycerol, 0.1 µg/µL yeast tRNA, 20 U RNasin, 25 °C 20 min; 5% native PAGE.
6HisRsmA (RsmAxcc) (Xanthomonas citri subsp. citri strain 306), sequence (Q8PLP9 whole entry): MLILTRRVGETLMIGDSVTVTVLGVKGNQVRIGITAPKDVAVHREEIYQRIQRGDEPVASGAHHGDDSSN

Consider hrpG 54-189, for which the binding signal (fold less shift than hrpG 1-189) was determined as 8.

These data come from paper PMC3937308.
